In patent publication US12173330B2, “Method for producing hydroxy-L-pipecolic acid” (API CORPORATION, priority 2015, dated 2024):
Positions count from the first letter of the chain named. Numbers in names are those of the source.

B1: CaPH: L-proline cis-4-hydroxylase from Catenulispora acidiphila NBRC102108, GenBank WP_012787640, SEQ ID NO: 6 (protein, listed as Catenulispora acidiphila)
chain: MRTQYVAALELDEGRLAKDLETSASFNYSEAYSNYLIGGPWKSAMLYSAGGDAGDGLLTDYDYRQSSDFTDYGRQMPYLQELISTSVDLSRLTFVRLARFAKSVIVPHRDFLELEEIPEDKRSAHRLHIPLATHEECFFSEDNVVYRMRAGELWYFDASRIHSVVSFAEEPRIHLIFDFADRPGAGSLVTVPGEPEGAGVPAASAVDRPQLSDAERAALARLADVLTMDTFSEIFSVLVKKHFRRDGGEHFVWDTLTALARACPDPAVLPHTQELRRYFTLERPSGSGQA
B2: McPH: amino acid hydroxylase from Micromonospora chokoriensis, GenBank WP_030487089, SEQ ID NO: 2 (protein, listed as Micromonospora chokoriensis)
chain: MRTHFVGEVALDLARLEADLATCRSLEWSEAYSDYVFGGSWKSCMLWAPGGDAGDGVVTDYAYDRSAGFTPHAERLPYLAELIRETADLDRLNFARLALVTNSVIIPHRDLLELSDLPDEARNEHRMHIPLATNDNCFFNEDNVVYRMRRGEVWFLDASRIHSVAVLTAQPRIHLMLDFVDTPGAGSFTRVAGGGVEAGIPVDRIVTRPPLGDDERADLFGVAPLLSMDTFDEVFSIVIKKHFRRDGGSDFVWDTMLELAAKSPDPAVLPHTEELRKHYTLDRSA
B3: McPHm11: McPH triple mutant F5Y, C23A, D282E; SEQ ID NO: 20 (protein, listed as Micromonospora chokoriensis)
chain: B2 chain with F5Y, C23A, D282E

Columns and labels:
[1] = Reactivity comparison of L-pipecolic acid 5-hydroxylases, substrate L-pipecolic acid (Example 4); conditions: 10 mmol/L substrate, 30° C., 30 minutes; hydroxy-L-pipecolic acid-producing activity set to 100
Protocol: (§1) The detection of the products was based on the absorbance at a wavelength of 340 nm.
(§2) The activity values were evaluated by the amount of a product per gram of total protein (U/g-protein).

[2] = Reactivity comparison of L-pipecolic acid 5-hydroxylases, substrate L-proline (Example 4); conditions: for Relative activity, Substrate: L-proline (hydroxy-L-proline-producing activity, 100 = hydroxy-L-pipecolic acid-producing activity): 10 mmol/L substrate, 30° C., 30 minutes; for hydroxy-L-proline detected from the reaction solution: Example 4, 10 mmol/L L-proline, in words
Protocol: as §1, §2

[3] = Catalytic efficiency (kcat/Km) of L-pipecolic acid hydroxylases with L-pipecolic acid (Example 3); assay type: biochemical; conditions: in words
[4] = Catalytic efficiency (kcat/Km) of L-pipecolic acid hydroxylases with L-proline (Example 3); assay type: biochemical; conditions: for hydroxy-L-proline detected from the reaction solution: L-proline as substrate, Example 3, in words
Protocol: Each of the obtained recombinant E. coli strains in a volume of 0.6 mL was recovered by centrifugation and was suspended in 0.5 mL of 50 mmol/L MES (2-morpholinoethanesulfonic acid) buffer at pH 6. The container containing the suspension was placed in ice-water bath to perform sonication and then spun at 12,000 rpm. The obtained supernatant was used as an enzyme solution in Example 3.
Subsequently, 0.05 mL of 1 mol/L hydrochloric acid was added to stop the reaction.
The reaction using L-proline as a substrate was carried out under the same conditions as in the above reaction using L-pipecolic acid.
Then, each reaction solution was treated using 1-fluoro-2,4-dinitrophenyl-5-L-alaninamide (FDAA) (manufactured by Tokyo Chemical Industry Co., Ltd.) according to a method as described below, to obtain a FDAA-derivative of a hydroxy-L-pipecolic acid or hydroxy-L-proline included in each reaction solution.
To the reaction solution after stopping the reaction, 0.05 mL of 1 mol/L sodium hydroxide was added for neutralization. After centrifuging the solution at 12,000 rpm, 15 μL of 0.5 mol/L borate buffer (pH 9) was added to 15 μL of the obtained supernatant, followed by further addition of 30 μL of 20 mmol/L FDAA solution in acetone and incubation at 40° C. for one hour. Subsequently, 10 μL of 1 mol/L hydrochloric acid was added to stop the derivatization reaction. The resulting solution was diluted by adding 80 μL of methanol, and then centrifuged at 12,000 rpm. The obtained supernatant was used as a FDAA derivative solution.
The amount of produced hydroxy-L-pipecolic acid or hydroxy-L-proline was analyzed with UPLC-MS (manufactured by Waters Co.).
An aliquot containing 5 μg of total protein was taken from each enzyme solution obtained in Example 2, loaded on each lane, and then electrophoresed on polyacrylamide gel. The obtained electrophoretogram was analyzed using the image analysis software Image Lab3.0 (manufactured by Bio-Rad Laboratories, Inc.) to determine the content of each hydroxylase. A carbonic anhydrase (manufactured by Sigma-Aldrich Co. LLC) was used as a quantification reference. The content of a hydroxylase of interest was calculated from the signal intensity of the enzyme of interest, based on the signal intensities of bands corresponding to 200 ng, 400 ng and 600 ng of the quantification reference provided for the electrophoresis.
The catalytic efficiency of each enzyme was calculated based on the Michaelis-Menten kinetic equation.
It is known that, in FIG. 1, the reciprocal of each intercept with the x-axis, multiplied with −1, represents a km value (mmol/L) and the reciprocal of each intercept with the y-axis represents a Vmax value (U/mg), the maximum rate of reaction.
The catalytic ability per molecule of the enzyme (kcat) can be calculated from the Vmax and the molecular weight of the enzyme. Table 5 indicates the result of the calculation of catalytic efficiency (kcat/km), which is an index representing the catalytic ability of an enzyme, based on the obtained kcat and km values.

[5] = Production of hydroxy-L-pipecolic acids by culture of recombinant E. coli expressing the hydroxylase (Example 5); assay type: cell-based, E. coli BL21 (DE3); conditions: for Accumulation of (4S)-hydroxy-L-proline: 120 hours; for Accumulation amount of (4S)-hydroxy-L-proline / Accumulation amount of (5S)-Hydroxy-L-pipecolic acid / Accumulation amount of L-pipecolic acid: after 120 hours, 20 mmol/L L-pipecolic acid in medium, 30° C.
[6] = 5-hydroxy-L-pipecolic acid-producing activity of McPH mutants (Example 6); assay type: biochemical; conditions: for Relative activity (5-hydroxy-L-pipecolic acid-producing activity, wild type = 100): Table 10, double and triple mutants
Source text: Each of the obtained plasmids was used to transform E. coli (Eschelichia coli) BL21 (DE3) (manufactured by Invitrogen) according to a conventional method and thus to obtain recombinant E. coli strains expressing the respective mutants.
Furthermore, the combination effect of the respective mutations was examined in the mutations corresponding to McPHm2, McPHm3, and McPHm9, each of which was effective to improve the activity. A plasmid expressing a double mutant (McPHm10) with substitutions of phenylalanine to tyrosine at position 5 and cysteine to alanine at position 23, and a plasmid expressing a triple mutant, which is derived from the double mutant and further has a substitution of aspartic acid to glutamic acid at position 282, were constructed. Then, recombinant E. coli strains were produced according to the method described above, and the resulting enzyme solutions were used to evaluate the 5-hydroxy-L-pipecolic acid-producing activity.

[7] = Hydroxylation activity of McPH mutants with L-proline as substrate (Example 6); assay type: biochemical; conditions: method of Example 4, in words

Molecule | Relative activity, Substrate: L-pipecolic acid [1] | Relative activity, Substrate: L-proline (hydroxy-L-proline-producing activity, 100 = hydroxy-L-pipecolic acid-producing activity) [2] | hydroxy-L-proline detected from the reaction solution [2] | Activity, Substrate: L-pipecolic acid (cell spanning Km to kcat/Km) [3] | hydroxy-L-proline detected from the reaction solution [4] | Accumulation of (4S)-hydroxy-L-proline ([5]; in words) | Accumulation amount of (4S)-hydroxy-L-proline [5] | Accumulation amount of (5S)-Hydroxy-L-pipecolic acid [5] | Accumulation amount of L-pipecolic acid [5] | Relative activity (5-hydroxy-L-pipecolic acid-producing activity, wild-type McPH = 100%) ([6]; Table 9, single mutants, U/g-protein basis, method of Example 4) | Relative activity (5-hydroxy-L-pipecolic acid-producing activity, wild type = 100) [6] | Activity, Substrate: L-proline (cell spanning Km to kcat/Km) ([4]; in words) | Conversion of the substrate to (5S)-hydroxy-L-pipecolic acid ([5]; incubation for 120 hours, in words) | Activity compared with that of the wild-type enzyme ([6]; in words) | Hydroxylation activity with L-proline as substrate [7]
B1 | 100% | 583% | much amount of hydroxy-L-proline was detected | (No activity ) | much amount of hydroxy-L-proline was detected | no accumulation of (4S)-hydroxy-L-proline is confirmed | 0 mmol/L | 0.8 mmol/L | 18.8 mmol/L | – | – | – | – | – | –
B2 | 100% | 0% | No hydroxy-L-proline was detected | – | no hydroxy-L-proline was detected | No accumulation of (4S)-hydroxy-L-proline was confirmed | 0 mmol/L | 23.5 mmol/L | 1.8 mmol/L | 100% | 100 | (No activity ) | almost the entire amount of the substrate was allowed to convert to (5S)-hydroxy-L-pipecolic acid | – | –
B3 | – | – | – | – | – | – | – | – | – | – | 314 | – | – | three or more times higher | virtually no activity against proline
